Experimental data taken from article PMC10873556, “G-quadruplex DNA structure is a positive regulator of MYC transcription”.

B1: MYC MUT ss (ssDNA)
DNA: TTTTTTAAGAGCGTTAAGAGCGTGAACAAGG
B2: MYC G4 ss (structured_DNA)
DNA: TTTTTGGGGAGGGTGGGGAGGGTGGGGAAGG

Columns and labels:
SP1 [1] = target: T1, SP1 (human, UniProt P08047 1-785); test: BLI; 100 nM SP1; negligible binding; BLI: 25 mM HEPES pH 7.5, 100 mM KCl, 12.5 mM MgCl2, 20% glycerol, 0.1% Igepal CA-630, 0.01 mM Zn(OAc)2, 1 mM DTT, 3% BSA, temperature not stated; pull-down: oligos annealed in 10 mM Tris-HCl pH 7.4 with (G4) or without (ds) 100 mM KCl; settings: protein: recombinant
T1 sequence (P08047 whole entry): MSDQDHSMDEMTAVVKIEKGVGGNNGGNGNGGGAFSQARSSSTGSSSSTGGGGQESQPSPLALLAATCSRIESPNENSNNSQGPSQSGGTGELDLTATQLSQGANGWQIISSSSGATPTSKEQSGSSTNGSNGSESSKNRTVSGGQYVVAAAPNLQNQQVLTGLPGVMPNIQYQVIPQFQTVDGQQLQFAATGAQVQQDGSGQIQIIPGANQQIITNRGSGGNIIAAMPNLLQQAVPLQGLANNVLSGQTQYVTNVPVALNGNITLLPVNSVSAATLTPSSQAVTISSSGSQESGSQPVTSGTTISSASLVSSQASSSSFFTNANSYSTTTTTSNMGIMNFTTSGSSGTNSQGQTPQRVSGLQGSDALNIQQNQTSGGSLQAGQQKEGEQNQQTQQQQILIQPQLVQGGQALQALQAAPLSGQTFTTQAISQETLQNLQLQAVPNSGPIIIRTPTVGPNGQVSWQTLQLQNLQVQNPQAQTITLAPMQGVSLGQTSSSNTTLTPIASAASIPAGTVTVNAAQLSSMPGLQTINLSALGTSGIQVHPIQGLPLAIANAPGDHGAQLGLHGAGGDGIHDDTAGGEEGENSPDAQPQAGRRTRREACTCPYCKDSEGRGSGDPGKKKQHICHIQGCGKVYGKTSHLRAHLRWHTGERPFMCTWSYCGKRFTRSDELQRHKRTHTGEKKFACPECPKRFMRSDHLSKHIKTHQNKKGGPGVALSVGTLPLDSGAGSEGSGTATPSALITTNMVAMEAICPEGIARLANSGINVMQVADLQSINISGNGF

SP1 [2] = target: T1, SP1; test: BLI; 100 mM KCl, 12.5 mM MgCl2, 0.01 mM Zn(OAc)2; apparent, most abundant population, 2:1 heterogeneous ligand fit; BLI: 25 mM HEPES pH 7.5, 100 mM KCl, 12.5 mM MgCl2, 20% glycerol, 0.1% Igepal CA-630, 0.01 mM Zn(OAc)2, 1 mM DTT, 3% BSA, temperature not stated; pull-down: oligos annealed in 10 mM Tris-HCl pH 7.4 with (G4) or without (ds) 100 mM KCl; settings: protein: recombinant; intramolecular G4

| Binder | binding result (SP1 [1]) | Kd (SP1 [2]) [nM] |
| --- | --- | --- |
| B1 | no binding |  |
| B2 |  | 5.6 |
